From the nanobody polyreactivity screen of Harvey et al. (2022)

assay: yeast display, Sf9 membrane polyspecificity reagent, FACS + sequencing; frameworks hold sequencing errors
Outline: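 In a synthetic yeast display library (Saccharomyces cerevisiae BJ5465), nanobody expression was induced with galactose for 36–48 hours. FACS gates were set low and high (top ~1%) using anti-HA fluorescence for expression and streptavidin fluorescence for binding of the Sf9 membrane reagent. Each polyreactivity label is drawn from the gate of origin.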

Sequence | polyreactivity (PSR sort gate)
QVQLVESGGGLVQAGGSLRLSCAASGSTFIANTMGWYRQAPGKERELVAAITDSGGSTYYADSVKGRFTISRDNAKNTVYLQMNSLKPEDTAVYYCNADYVYVFIRAWSYDYWGQGTQVTVSS | low polyreactivity
QVQLVESGGGLVQAGGSLRLSCAASGSTFIFNAMGWYRQAPGKERELVAAISWRVGRTYYADSVKGRFTISRDNAKNTVYLQMNSLKPEDTAVYYCAAPKSSTGHYYSWGQGTQVTVSS | low polyreactivity
QVQLVESGGGLVQAGGSLRLSCAASGSTFIFYAMGWYRQAPGKERELVATISGGGSTYYADSVKGRFTISRDNAKNTVYLQMNSLKPEDTAVYYCATDVQVPGIGRSVYAYEYWGQGTQVTVSS | low polyreactivity
QVQLVESGGGLVQAGGSLRLSCAASGSTFIFYSMGWYRQAPGKERELVAAITSSGGSTYYADSVKGRFTISRDNANNTVYLQMNSLKPEDTAVYYCITLAYTYGSKFGYWGQGTQVTVSS | low polyreactivity
QVQLVESGGGLVQAGGSLRLSCAASGSTFIFYTLGWYRQAPGKERELVAAITSNGGSTYYADSVKGRFTISRDTAKKTVYLQMNSLKPEDTAVDYCAKKGVGQYDWGQGTQVTVSS | high polyreactivity
QVQLVESGGGLVQAGGSLRLSCAASGSTFIGNAMGWYRQAPGKERELVADISWSTASTYYADSVKGRFTISRDNAKNTVYLQMNSLKPEDTAVYYCARDPFVYLYLVDYDYWGQGTQVTVSS | low polyreactivity
QVQLVESGGGLVQAGGSLRLSCAASGSTFIGYAMGWYRQAPGKERELVAAISRSDGSTYYADSVKGRFTISRDNAKNTVYLQMNSLKPEDTAVYYCNADYYRWYDYWGQGTQVTVSS | low polyreactivity
QVQLVESGGGLVQAGGSLRLSCAASGSTFIGYDMGWYRQAPGKERELVAAISYSDGTYYADSVKGRFTISRDNAKNTVYLQMNSLKPEDTAVYYCAAVSLYYRYDYWGQGTQVTVSS | low polyreactivity
QVQLVESGGGLVQAGGSLRLSCAASGSTFIGYTMGWYRQAPGKERELVAAIRYSSGRTYYADSVKGRFTISRDNAKNTVYLQMNSLKPEDTAVYYCAAANPRDHRGANDYWGQGTQVTVSS | high polyreactivity
QVQLVESGGGLVQAGGSLRLSCAASGSTFIIYAMGWSRQAPGKERELVAAITRDGSTYADSVKRRFTISRDNAKNTVYLQMNRLKPEDTAVYYCAATSRQGYDYWGQGTEVTVSS | high polyreactivity
QVQLVESGGGLVQAGGSLRLSCAASGSTFIIYAMGWYRQAPGKERELVAAITWRGGTTYYADSVKGRFTISRDNAKNTVYLQMNSLKPEDTAVYYCNAKFGYPFVDYDDYWGQGTKVTVSS | low polyreactivity
QVQLVESGGGLVQAGGSLRLSCAASGSTFIKNAMGWYRQAPGKERELVAAISSSASSTYYADSVKGRFTISRDNAKNTVYLQMNSLKPEDTAVYYCAARASRKYNYWGQGTQVTVSS | high polyreactivity
QVQLVESGGGLVQAGGSLRLSCAASGSTFINYAMGWYRQAPGKERELVAAISRSGGTTYYADSVKGRFTISRDNAKNTVYLQMNSLKPEDTAVYYCNATLGSYARTRYYYWGQGTQVTVSS | high polyreactivity
QVQLVESGGGLVQAGGSLRLSCAASGSTFINYAMGWYRQAPGKERELVAAISSSGGRTYYADSVKGSFTISRDNAKNTVYFLMNSLKPEDTAVYYCAASGRKNGMNYWGQGTLVTVSS | high polyreactivity
QVQLVESGGGLVQAGGSLRLSCAASGSTFIPNAMGWYRQAPGKERELVATIRSGGGRTYYADSVKGRFKISRDNAKNTVYLQMNSLKPEDTAVYYCAAGYYLSVQVYRFDYWGQGTQVTVSS | high polyreactivity
QVQLVESGGGLVQAGGSLRLSCAASGSTFIQNAMGWYTQAPGKERELVAAITSGGGTNYADSVKGRFTISRDNAKNTVYLQMNSLKPEDTAVYYCAAEPFNYVEFWFGWEYQYDYWGQGTQVTVSS | low polyreactivity
QVQLVESGGGLVQAGGSLRLSCAASGSTFIQYAMGWSRQAPGNERELVASIRWIGGSTYYADSVKGRFTISRDNAKNTVYLQMNSLKAEDTAVYYCAAGYEYVENGVDWYEYDYWGQGTQVTVSS | low polyreactivity
